{
  "source": "paper PMC8990529",
  "key": {"[1]": {"tested_on": "anti-G4 antibody clone 1H6 (mouse)", "test": "fluorescence polarization", "details": "FP: 50 mM Tris-HCl pH 7.5, 50 mM KCl, 1 mM MgCl2, 1 mM DTT, 0.1 mM EDTA, 10 nM oligo, 30 min RT, read at 25 C; Trp quenching: same buffer, 500 nM APE1, 20 C"}, "[2]": {"tested_on": "G4-forming KRAS oligo (32R), unlabeled (DNA, G4) AGGGCGGTGTGGGAAGAGGGAAGAGGGGGAGG", "test": "UV-Vis absorption titration, Scatchard plot", "details": "50 mM KCl; 10 mM Tris-HCl pH 7.5, 1 mM EDTA, RT; 4 µM TMPyP4, oligo 0-1.8 µM; specific site"}, "[3]": {"biological_target": "T1, APE1 WT (human, UniProt P27695 1-318)", "T1 sequence (P27695 whole entry)": "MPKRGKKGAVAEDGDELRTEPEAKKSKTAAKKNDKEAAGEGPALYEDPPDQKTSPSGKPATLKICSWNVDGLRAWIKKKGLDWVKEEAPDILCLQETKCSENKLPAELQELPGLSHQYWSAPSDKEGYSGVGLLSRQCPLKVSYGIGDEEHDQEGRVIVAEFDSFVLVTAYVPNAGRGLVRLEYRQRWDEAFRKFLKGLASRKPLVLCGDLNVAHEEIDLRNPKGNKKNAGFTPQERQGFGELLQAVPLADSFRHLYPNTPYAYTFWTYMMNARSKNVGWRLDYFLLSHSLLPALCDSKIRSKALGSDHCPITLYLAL", "test": "fluorescence polarization; 50 mM KCl, 1 mM MgCl2; no measurable affinity; FP: 50 mM Tris-HCl pH 7.5, 50 mM KCl, 1 mM MgCl2, 1 mM DTT, 0.1 mM EDTA, 10 nM oligo, 30 min RT, read at 25 C; Trp quenching: same buffer, 500 nM APE1, 20 C", "details": "protein: recombinant; label: 5'-6-FAM; no parallel G4 by CD"}, "[4]": {"biological_target": "T1, APE1 WT", "test": "fluorescence polarization; 50 mM KCl, 1 mM MgCl2; FP: 50 mM Tris-HCl pH 7.5, 50 mM KCl, 1 mM MgCl2, 1 mM DTT, 0.1 mM EDTA, 10 nM oligo, 30 min RT, read at 25 C; Trp quenching: same buffer, 500 nM APE1, 20 C", "details": "protein: recombinant; label: 5'-6-FAM; parallel G4 (CD), prefolded in 50 mM KCl"}, "[5]": {"biological_target": "APE1 NΔ42 (human, UniProt P27695 43-318, del1-42)", "sequence (P27695 43-318, stated change not applied)": "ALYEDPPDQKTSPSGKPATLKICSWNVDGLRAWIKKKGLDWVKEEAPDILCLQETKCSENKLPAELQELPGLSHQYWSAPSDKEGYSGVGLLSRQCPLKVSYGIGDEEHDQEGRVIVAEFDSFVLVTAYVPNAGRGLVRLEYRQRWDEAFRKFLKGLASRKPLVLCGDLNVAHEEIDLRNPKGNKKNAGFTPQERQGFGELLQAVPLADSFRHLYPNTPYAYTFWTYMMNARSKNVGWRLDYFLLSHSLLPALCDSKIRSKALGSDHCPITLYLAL", "test": "fluorescence polarization; 50 mM KCl, 1 mM MgCl2; FP: 50 mM Tris-HCl pH 7.5, 50 mM KCl, 1 mM MgCl2, 1 mM DTT, 0.1 mM EDTA, 10 nM oligo, 30 min RT, read at 25 C; Trp quenching: same buffer, 500 nM APE1, 20 C", "details": "protein: recombinant; label: 5'-6-FAM; parallel G4 (CD), prefolded in 50 mM KCl"}, "[6]": {"biological_target": "APE1 H309A (human, UniProt P27695 1-318, H309A)", "sequence (P27695 whole entry H309A)": "as the sequence (P27695 whole entry) above, with H309A counted along it", "test": "fluorescence polarization; 50 mM KCl, 1 mM MgCl2; FP: 50 mM Tris-HCl pH 7.5, 50 mM KCl, 1 mM MgCl2, 1 mM DTT, 0.1 mM EDTA, 10 nM oligo, 30 min RT, read at 25 C; Trp quenching: same buffer, 500 nM APE1, 20 C", "details": "protein: recombinant; label: 5'-6-FAM; parallel G4 (CD), prefolded in 50 mM KCl"}, "[7]": {"biological_target": "T2, GST-APE1 1-42 (human, UniProt P27695 1-42)", "T2 chain": "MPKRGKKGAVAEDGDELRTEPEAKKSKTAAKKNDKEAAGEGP", "test": "fluorescence polarization; 50 mM KCl, 1 mM MgCl2; no measurable affinity; FP: 50 mM Tris-HCl pH 7.5, 50 mM KCl, 1 mM MgCl2, 1 mM DTT, 0.1 mM EDTA, 10 nM oligo, 30 min RT, read at 25 C; Trp quenching: same buffer, 500 nM APE1, 20 C", "details": "protein: recombinant; tags: GST; label: 5'-6-FAM; parallel G4 (CD), prefolded in 50 mM KCl"}, "[8]": {"biological_target": "T1, APE1 WT", "test": "competition (fluorescence polarization; printed as EC50); 640 nM APE1, 10 nM 6-FAM G4-forming KRAS oligo as probe; FP: 50 mM Tris-HCl pH 7.5, 50 mM KCl, 1 mM MgCl2, 1 mM DTT, 0.1 mM EDTA, 10 nM oligo, 30 min RT, read at 25 C; Trp quenching: same buffer, 500 nM APE1, 20 C", "details": "protein: recombinant; parallel G4 (CD), prefolded in 50 mM KCl"}, "[9]": {"biological_target": "T1, APE1 WT", "test": "tryptophan fluorescence quenching (Scatchard); 500 nM APE1, 50 mM KCl, 1 mM MgCl2, 20 C; FP: 50 mM Tris-HCl pH 7.5, 50 mM KCl, 1 mM MgCl2, 1 mM DTT, 0.1 mM EDTA, 10 nM oligo, 30 min RT, read at 25 C; Trp quenching: same buffer, 500 nM APE1, 20 C", "details": "protein: recombinant; parallel G4 (CD), prefolded in 50 mM KCl"}},
  "data": [
    {"molecule": "AGGGCGGTGTGGGAAGAGGGAAGAGGGGGAGG [G4-forming KRAS oligo (32R), 6-FAM]", "values": [
      {"measurement": "Kd", "setting": "[1]", "value": 0.5, "unit": "nM"}
    ]},
    {"molecule": "C[n+]1ccc(-c2c3nc(c(-c4cc[n+](C)cc4)c4ccc([nH]4)c(-c4cc[n+](C)cc4)c4nc(c(-c5cc[n+](C)cc5)c5ccc2[nH]5)C=C4)C=C3)cc1", "values": [
      {"measurement": "Kd", "setting": "[2]", "value": 11, "unit": "nM"}
    ]},
    {"molecule": "AGTTCGGTGTGTTAAGAGTTAAGAGTTGGAGG (ssDNA)", "note": "[non-G4-forming KRAS oligo, 6-FAM]", "values": [
      {"measurement": "binding result", "setting": "[3]", "value": "no binding"}
    ]},
    {"molecule": "AGGGCGGTGTGGGAAGAGGGAAGAGGGGGAGG (structured_DNA)", "note": "[G4-forming KRAS oligo (32R), 6-FAM]", "values": [
      {"measurement": "Kd", "setting": "[4]", "value": "31 ± 3", "unit": "nM"},
      {"measurement": "Kd", "setting": "[5]", "value": "313 ± 12", "unit": "nM"},
      {"measurement": "Kd", "setting": "[6]", "value": "152 ± 25", "unit": "nM"},
      {"measurement": "binding result", "setting": "[7]", "value": "no binding"}
    ]},
    {"molecule": "AGGGCGGTGTGGGAAGAGGGAAGAGGGGGAGG (structured_DNA)", "note": "[G4-forming KRAS oligo (32R), unlabeled]", "values": [
      {"measurement": "IC50", "setting": "[8]", "value": "2300 ± 1500", "unit": "nM"},
      {"measurement": "Kd", "setting": "[9]", "value": 12, "unit": "nM"}
    ]}
  ]
}
